In paper PMC5136324 (Molecular cancer therapeutics, 2016):
Ends that are not written are not given here. * marks the point of attachment. FITC = O=C1OC2(c3ccc(O)cc3Oc3cc(O)ccc32)c2ccc(NC(=S)*)cc21

Molecular target: AR ligand binding domain (residues 670-920), biotinylated, N-terminal (His)6-avidin tag (human, UniProt P10275 670-920, biotin (biotinylated form))
Assay: FRET or BRET

binding result: binds
Binder: {FITC}-MPQDLRSPARTPPSEEDSAEA [FITC-labelled SGTA peptide (FITC-MPQDLRSPARTPPSEEDSAEA)]
